This note sets out measurements from US20200291105A1 (published 2020).

Substitutions are numbered along the chain they refer to. Like-named read-outs stand apart in the source and are kept apart here.

The target in experiment [1] is T1, mouse IL-25 (mouse, UniProt Q8VHH8 17-169).
T1 chain: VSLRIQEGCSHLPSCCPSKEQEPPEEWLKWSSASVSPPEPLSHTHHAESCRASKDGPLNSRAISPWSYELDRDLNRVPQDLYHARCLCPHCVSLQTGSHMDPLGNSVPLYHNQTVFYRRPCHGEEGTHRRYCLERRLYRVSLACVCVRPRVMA
Briefly: SPR. (In SPR one partner is held on a chip, and binding of the other changes the refractive index at the surface.)

For experiment [2], the target named is T1, mouse IL-25.
Experiment [3] deals with T2, recombinant human IL-25 (R&D Systems) (human, UniProt Q9H293 33-177).
T2 chain: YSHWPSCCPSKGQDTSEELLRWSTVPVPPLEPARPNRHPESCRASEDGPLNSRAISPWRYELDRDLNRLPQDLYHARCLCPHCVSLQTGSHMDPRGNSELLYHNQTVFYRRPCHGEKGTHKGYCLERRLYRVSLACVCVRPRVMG

A further experiment concerns the target hABM125.9. In words: SPR.
The next experiment concerns the target hABM125.10. In words: SPR.

B1: ABM125 (antibody, V domains shown)
VH: QVTLKVSGPGILQPSQTLSLTCSFSGFSLNTSGMGVGWIRQPSGKGLEWLAHIWWDDVKRYNPALKSRLTISKDTSGSQVFLKIASVDTADTATYYCARTLPHFFDYWGQGTTLTVSS
VL: DIQMTQSPAIMSASPGEKVTISCSASSSVSYMYWYQQKSGSSPKPWIYRTSNLASGVPARFSGSGSGTSYSLTISSMEAEDAATYYCKQYHSYPPTWTFGGGTKLEIKR
The molecule B1 came in with a Kd with mouse IL-25 [1] of 0.0073 nM.

B2: ABM109.2 (antibody, V domains shown)
VH: QVQLVQSGAEVKKPGASVKVSCKASGYTFSSYWIEWVRQAPGQGLEWIGQILPGIGSTNYNEKFKGRVTITADTSTSTVYMELSSLRSEDTAVYYCARGYGNYGDYWGQGTTVTVSS
VL: DIVLTQSPASLAVSPGQRATITCRASESVDSYGNSFMHWYQQKPGQPPKLLIYRASNLESGVPARFSGSGSGTDFTLTINPVEAQDTANYYCQQSNEDPLTFGAGTKLELKR
For the molecule B2, binding in the experiment with mouse IL-25 [2] was put at a Kd of 0.028 nM.

B3: ABM 109 (antibody, V domains shown)
VH: EVKVVESGADLMKPGASVKISCKATGYTFSSYWIEWVKQRPGHGLEWIGQILPGIGSTNYNEKFKGKATFTADTSSNTAYMQLSSLTSEDSAVYYCARGYGNYGDYWGQGTTVTVSS
VL: B2 VL with P15L, T22S, V62I, G72R, Q85D, T87V, N89T
As to B3, the Kd in experiment [3] amounted to 0.004 nM.

B4: mouse IL-25 (NS0) (ligand)
chain: T1 chain
Consider B4, for which the Kd with hABM125.9 stood at 0.733 nM; with hABM125.10, 1.06 nM.

One may read the Kd as the free concentration of one partner at which half of the binding sites on the other are occupied at equilibrium, for simple one-to-one binding.
